Measured values reported in a protein production outcome set (Wang et al. 2014).

Assay: label from the status in PepcDB records
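Note: failed if final PepcDB status was selected cloned or expressed and not failed if soluble or beyond.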

Row | Sequence | protein production
1 | MLISLIVPIYNVEGFLPRCLDSIIKQEYQNLEIVLVNDGSTDQSGLICDQYAEKDERFIVFHKENGGVSSARNVGLNKANGNYIGFVDPDDWIEPNMINKLYELIIQHKADIAMCGYVKEDINGLLISRPVELSTKILNKEDTLNSILNPNDFRGFLCNKLFSVDLFRKKNLYLDEDIHFCEDLLFCCQAILESKQIVYDSTPYYHYIIHNNNASKSNFSFKKLTALNSLDNIINLLNDQKGIELEQYKNYYMHLNISLLMNGIHEDKIRRQDKERLKKNLYKFKINDLTSKFVKFSCVLARLNLNLYYFIWKNAKPSNLEHHHHHH | failed
2 | MLIVSGCSSSQNNNGSGKSESKDSRVIHDEEGKTTVSGTPKRVVVLELSFLDAVHNLGITPVGIADDNKKDMIKKLVGSSIDYTSVGTRSEPNLEVISSLKPDLIIADAERHKNIYKQLKKIAPTIELKSREATYDETIDSFTTIAKALNKEDEGKEKLAEHKKVINDLKAELPKDENRNIVLGVARADSFQLHTSSSYDGEIFKMLGFTHAVKSDNAYQEVSLEQLSKIDPDILFISANEGKTIVDEWKTNPLWKNLKAVKNGQVYDADRDTWTRFRGIKSSETSAKDVLKKVYNK | failed
3 | MLKEKAGVIAGTIWNALNETEGMTAKQLKKATKLVDKDLFLGLGWLLREDKVSVEEVEGELFIKLI | failed
4 | MLKGFNSGDISYEILEKKKENIEQQALERFLEEKSEKENKHIPKEDMLFNSKDSIAMERIVGKNDLFPISYLQIGLNISKSVCRISIRDSRGVVVGYGTGFLVAPNIILTNNHVINSYEVASNSIAEFNYQDDENFMPCPTYNFRLNPQTFFITNVKLDFTLVALNENVTNQKHLEDFGYLKMTQKEGTILPEEYVSIIQHPKGGPKSVTLRENKVSGLKENFIHYLTDTEPGSSGSPVFNDQWTLVALHHSGVPNPEIKDEWIANEGILISAIVNYLAKKYSSLKENEQAIIKEIVPDIELPKENNITSSVDDEPLGYNPLFLGKDYEIPLPKLSKEMEKDTAKTEDGNYVLDYIHFSIVMKKSRGLAYFTAVNIDGTDAVKIRRTADNWKFDPRISQNYQYGDEVYVNNDLDRGHLVRRTDPNWGKNALKANEDTFYFTNSTPQHKNLNQKTWVELEDYIFRNAVLNQFKVSVFTGPVFREDDMIYRQKYQIPAEFWKVVVMLKEDGNISATAYLQTQKNMIENLEFAYGEYKTYQVPVRNIEKLTGLDFGNLSKFDPMANIEATGIVITGPESIKF | failed
5 | MLKGFTRSSISPQLCSLYFKGLVGDDSLAGFGVAICGHRDDILFQLNAPIHGSDITVLEAELMALKRGLIEAAGFKSSFTIFVEGSSIRYVSELARATIVSELSISVDPPSSSLNGIEKLKLEDVIVWNVVNPYASTAKFGKSENVASMWKVPTHDRTFRRMHQSNLQFTFDFLGCWIGVAIRFATHAEQNGSKEVALIEQ | failed
6 | MLKILATQFNGKLQTLTKQEDELFDVVRLLAQALVGQGKVYLDAYGEFEGLYPMLSDGPDQMKRVTKIKDHKTLHAVDRVLIFTPDTERSDLLASLARYDAWHTPYSIITLGDVTETLERSIAPLALKFDKGLLPAEDGSRHGLPSLALGAFLLTHILTQLQEMTEEWE | not failed
7 | MLKKLFAPPQKRERLSAEEIKHKYPRYRVQVLISIFVGYMGYYFVRNTTSILSGILNMSATEIGIITCASYIAYGLSKFISGLISDESNSKIFLPVGLFLTGLVNVLIGVIPSVITSIWLFTIMYLINGWLQGMGYPPGARTLVYWYDNKERIKYATIWNLSHNFGGAIAPILTGVGLALAGNDSLNQARAAYWFPGVVACLLAVLVYFLQEDTPESIGLPPIEEYHKEQYTNVVDSSDILEEPEVLGMGEIIKKYILPNTKLMWASLYSIFVYILRYGIVSWTPKFLATSVQDGGKGITATAGMGGFSLFEIGGIIGMLTAGYLSAKVFKNSKPLTNVAFLVVAILLLAAYWFIPAGPQYMALDFIILLGLGASIYGPVMMVGLYAMELVPKAAAGAASGLTGTFSYVGGATIATLAIGIIIDHFGWGVAFIIFGISGFAAIVCTLLSRDKSLEYW | failed
8 | MLKLSNFGPGALVAAAFIGPGTVVTASLAGANFGYALLWALLFSVVACVILQEMSARIGLVTQAGLGENIRNNLTSGWLRWLALLLIFSAIAIGNSVYQGGNLSGASLGASELLGPVPVLDVWLSNAWALIIGIIALLILWSGNARVIERALIVMVLLMSVAFIGTFLLTDPDWGAVFNGTFGFSMPTGATLTVVALIGTTVVPYNIFLHASSVSKKWKTAEELPAARRDLFLSIPFGGLISMAIVATAASAFFGQQVEIESAGDLAESLRPLFGDGATYLMAIGLFAAGISSATTAPLASAYALCGIMGWSVNLRSRAFRIIWFTILVIGIIISSVGIKPVTVIWFAQVANGILLPIIVGFLWWLCQSPLLGKYRNSLLQNILAAIIFLISVVLSGRSLGSAFGFW | failed
9 | MLKPLVLSDSSPVRPRDLTLLDQEEAGLVSTFINRPPIDIFKILPSKDDPDWPSFQQILSKFPDTEHLCPDGGLVNNSFILDIVLPQKWIDHRVCNPRFFQSIVSTTCYFMGFVFYADLNLGFMHFSPFHIAII | failed
10 | MLKQTSDSPVGTLFIIIEDAHITKISYDEPTNWEILAGEKGEIAIYQQLLEQLAGYFEGEREVFDLPIFLQGTPFQQRVWQALSEIPYGVVVSYKDIAIAAGSPKAVQAVGQANRANPIPILIPCHRCVKSDGALGGYNGADIDKKQYLLALEKGLRLS | failed
11 | MLKRTLLACLALSCSFPSYSADYITENLSTYMRKGAGDQYKIAGTIQAGEKITVLDRKDRFVLIRDSRNREGWVLNNEISQTASPKELIPELQQQIQDLSSKLNKIDNDWQQRTAEMQRRSQQAEQQSSELLDENTQLKRKLEVLKNKNRDLETMQDAEKREIVIQWFIYGGSVLTVGLLLGLLIPFILPRRRRNNGWSLEHHHHHH | failed
12 | MLKSQEIRQKAPELDSLRLGSGWKSEELNKAQIIIESSFGHSHPGSAHLDTLVDEAFKSIDDNGGRGAKYFVTDICDGETQGHDGMNYSLASRDIMTNLMEIHVQATPFDAGIFIASCDKAVPAHLMAIARLDMPSILVPGGIMNAGPNMLTLEQIGTYNAQYERGEITKEQYEHYKQNACPSCGACSFMGTASTMQVMSEALGIALPGTALIPVTSKELKLAAKNAGKQILKLIELNIKPSEIMTKKAFENAIMVHAAIAGSSNCLLHIPAIAHELGMDIEPELFDEIHKKIPYILNIRPSGFYPGSYFWNAGGVPAIMEEIKEFLHLDVMTVTGKTLGENLEDLKNSGYYEEHDKLITSLGIKKEDVIRTKENPIQSQGAIAILKGNLAPGGAVVKHSAISKKLMQVVLKARVFNCEEDAIKSVLTKNIKPGDAVFVRYEGPKGSGMPEMFYTTEAIASDHELVDSTALITDGRFSGATRGPAIGHVSPEASEGGPIAFVQEGDLIKIDIPARKLDIIGTNGIEKSEKEIENILKERSQNWVKPAPRYTKGILGLYTRCASSPMKGGYME | failed
13 | MLKTILSISGKPGLFKLVSHGKNMLIVESLADKKRVPAYAKDKVISLGDIAIYTNEAEVPLHEVLTNVKNKENGQQASVSTSAKPDELRAYFAEILPNFDRERVYPSDIKKLISWYNILIGAGLTEFTPEGSATEEASVKETKKEEA | failed
14 | MLKTLAVANYRSINKLVIPLGRLNLVTGANGSGKSNLYRALRLLAETAQGGVVNALAKEGGLESTYWAGPEQISRRMSQGEVPIQGGPRKAARRLQLGFAGEDFGYAISLGLPDSSGHFMLPGHSSPIASRFTLDPWIKRESIWGGPLYRSASALVDRQGPMIRARAGRQWEVLAQHTSSGDSLFDRVGNLSSSPEVLHLREQIRGWRFYDHLRTDSQAPARRPQLGTRTPVLHHDGRDLAAALQTIIEVGDQQALHETISDAFPESRLEIDAVPGGLFGVQFYQEGLLRPLSAAELSDGTLRYLLLVAALLTPRPPTLMVLNEPETSLHPDLLPALARLIIRASQQCQVWVVSHARRLIAALQQDPECNCIVLEKQLGQTGIVGQRMLDEPAWNWPDLEHHHHHH | failed
15 | MLKTLLTSDVIQVVSQAKDWRDAIAISCQPLIDNGAVEARYVEAIYRSHEAIGPYYVVGPGIAMPHARPEDGVNRLSLALTVITEGVTFNAEGNDPVKLLIVLAATDSNSHIEAISQLAQLFDTASDVQALLNAKTPQDILSVIARY | not failed
